For 2 substances, other: relative intensity of H3 1-59-Sumo remaining bound to Kap123 after competition and fold affinity relative to H4-NLS results are on record in article PMC5677370, “Structure-based nuclear import mechanism of histones H3 and H4 mediated by Kap123” (eLife, 2017).

For test [1], the target named is MBP-tagged Kap123. Put plainly: amylose affinity pull-down competition assay. To be noted: pre-assembled MBP-Kap123 and H3 1-59-Sumo, value at 0X set to 1.0, read off a plot.
The target in test [2] is full-length Kluyveromyces lactis (Kl) Kap123, wild type (Kluyveromyces lactis). Put plainly: SPR; wild-type Kl Kap123 immobilised on a CM5 chip (10 mM acetate pH 4.0); wild-type or mutant H3 or H4 peptides injected at 30 μl/min in binding buffer (10 mM HEPES, 150 mM NaCl); 7°C. In general terms: Surface plasmon resonance follows binding to a sensor surface in real time, without labels.

MBP-tagged Kap123, sequence (chain, as listed by the source): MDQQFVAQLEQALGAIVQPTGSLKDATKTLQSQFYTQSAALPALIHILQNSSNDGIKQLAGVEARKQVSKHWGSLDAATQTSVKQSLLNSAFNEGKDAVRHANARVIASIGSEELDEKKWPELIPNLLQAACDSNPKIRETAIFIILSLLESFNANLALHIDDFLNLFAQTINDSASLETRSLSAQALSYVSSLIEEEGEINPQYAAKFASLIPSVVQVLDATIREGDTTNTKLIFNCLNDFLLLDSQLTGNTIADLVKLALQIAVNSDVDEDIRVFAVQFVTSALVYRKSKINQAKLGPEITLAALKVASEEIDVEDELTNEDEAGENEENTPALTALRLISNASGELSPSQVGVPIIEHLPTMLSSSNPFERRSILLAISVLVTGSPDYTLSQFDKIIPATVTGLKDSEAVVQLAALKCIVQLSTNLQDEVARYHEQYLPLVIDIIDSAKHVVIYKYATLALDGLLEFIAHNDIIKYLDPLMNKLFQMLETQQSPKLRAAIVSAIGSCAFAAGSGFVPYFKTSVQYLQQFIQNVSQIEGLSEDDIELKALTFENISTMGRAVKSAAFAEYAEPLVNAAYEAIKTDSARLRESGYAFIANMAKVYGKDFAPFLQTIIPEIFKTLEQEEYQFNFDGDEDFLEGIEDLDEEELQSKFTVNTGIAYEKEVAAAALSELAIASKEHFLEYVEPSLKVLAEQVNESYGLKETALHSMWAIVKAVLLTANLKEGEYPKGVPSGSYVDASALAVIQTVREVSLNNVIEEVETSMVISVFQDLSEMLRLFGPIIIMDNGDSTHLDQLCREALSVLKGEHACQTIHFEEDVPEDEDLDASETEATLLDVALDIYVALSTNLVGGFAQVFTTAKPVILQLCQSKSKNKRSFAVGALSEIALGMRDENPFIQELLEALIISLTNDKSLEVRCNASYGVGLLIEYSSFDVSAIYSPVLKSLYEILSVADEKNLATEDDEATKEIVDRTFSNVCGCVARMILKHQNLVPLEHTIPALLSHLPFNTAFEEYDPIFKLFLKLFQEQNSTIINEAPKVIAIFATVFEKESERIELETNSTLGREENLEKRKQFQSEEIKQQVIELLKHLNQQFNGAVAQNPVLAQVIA

For the substance “C-terminal Sumo-tagged histone H4_(1–48), P02309 K5Q; K8Q; K12Q”, the other: relative intensity of H3 1-59-Sumo remaining bound to Kap123 after competition in test [1] (competitor at 1X, parent: est. 0.88) stood at 0.99; in test [1] (competitor at 2X, parent: est. 0.67), 0.99; in test [1] (competitor at 5X, parent: est. 0.32) it was 0.94; in test [1] (competitor at 10X, parent: est. 0.13), 0.96.

As for “wild-type H3_(1–35)-NLS peptide (injected as analyte) (from UniProt P61830 2-36)”, in test [2], the fold affinity relative to H4-NLS was determined as 5 fold.
